Experimental findings from patent US20200199241A1 (Chugai, published 2020) are described below.

Experiment [1] concerns the target T1, mouse FcγRIIb (mouse, UniProt P08101 30-207, limits assumed).
T1 construct: bought; also called mFcgRIIb; mFcgR IIb
T1 sequence (looked up): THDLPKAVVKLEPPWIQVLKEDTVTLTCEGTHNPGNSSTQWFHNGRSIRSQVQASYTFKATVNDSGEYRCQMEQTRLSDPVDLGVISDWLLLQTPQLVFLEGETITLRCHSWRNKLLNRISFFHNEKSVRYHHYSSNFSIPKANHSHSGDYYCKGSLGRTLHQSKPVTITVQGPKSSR
Briefly: SPR, antibody captured by Protein L, mouse FcγR as analyte, pH 7.4, 25 C.

The target of experiment [2] is T2, mouse FcγRIII (mouse, UniProt P08508 31-215).
T2 construct: bought; also called mFcgRIII; mFcgR III
T2 sequence (looked up): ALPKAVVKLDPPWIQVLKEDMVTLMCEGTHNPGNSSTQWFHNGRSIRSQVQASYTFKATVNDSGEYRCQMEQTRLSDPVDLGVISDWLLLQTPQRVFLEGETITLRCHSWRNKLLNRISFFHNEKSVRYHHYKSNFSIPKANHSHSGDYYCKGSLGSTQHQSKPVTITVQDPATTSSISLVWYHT
Described as above.

The target of experiment [3] is T3, mouse FcγRIV (mouse, UniProt A0A0B4J1G0 21-203).
T3 construct: bought; also called mFcgRIV; mFcgR IV; the vendor's purification tag not given
T3 sequence: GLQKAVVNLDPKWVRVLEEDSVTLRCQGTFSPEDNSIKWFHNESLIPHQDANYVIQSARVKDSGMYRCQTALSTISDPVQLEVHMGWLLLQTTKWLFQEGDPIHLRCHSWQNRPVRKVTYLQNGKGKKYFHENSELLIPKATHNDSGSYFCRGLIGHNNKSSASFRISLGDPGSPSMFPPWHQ
Described as above.

The target of experiment [4] is T4, mouse FcγRI (mouse, UniProt P26151 25-297).
T4 construct: bought; also called mFcgRI; mFcgR 1
T4 sequence (looked up): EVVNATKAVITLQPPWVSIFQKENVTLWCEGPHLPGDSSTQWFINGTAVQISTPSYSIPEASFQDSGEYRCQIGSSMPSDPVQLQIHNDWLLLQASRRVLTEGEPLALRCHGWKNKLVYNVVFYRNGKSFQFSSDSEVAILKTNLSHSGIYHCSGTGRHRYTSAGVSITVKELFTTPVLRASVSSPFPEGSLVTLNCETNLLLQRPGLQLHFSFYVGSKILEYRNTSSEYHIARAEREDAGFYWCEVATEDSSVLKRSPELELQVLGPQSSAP
The description is as above.

For experiment [5], the target named is T5, human FcγRIIa(H) (human, UniProt P12318 36-217).
T5 construct: also called hFcgRIIa(H); FcγRIIa type H
T5 sequence: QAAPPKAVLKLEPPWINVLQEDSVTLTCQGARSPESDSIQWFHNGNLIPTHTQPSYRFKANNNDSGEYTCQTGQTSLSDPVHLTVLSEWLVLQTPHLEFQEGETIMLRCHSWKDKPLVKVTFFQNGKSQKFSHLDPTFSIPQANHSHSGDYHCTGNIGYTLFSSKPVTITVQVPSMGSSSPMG
Briefly: SPR, antibody captured by Protein L, human FcγR as analyte, pH 7.4, 25 C.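 Also: biacore T100 or T200 with Protein L amine-coupled on a CM4 chip, FcγRs diluted in ACES saline with polysorbate 20, buffer-only injection as blank.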 On the technique in general: Surface plasmon resonance follows binding to a sensor surface in real time, without labels.

Experiment [6] has as its target T6, human FcγRIIa(R) (human, UniProt P12318 36-217).
T6 construct: also called hFcgRIIa(R); FcγRIIa type R
T6 chain: T5 sequence with H133R
The experiment is described as above.

For experiment [7], the target named is T7, human FcγRIa (human, UniProt P12314 16-292, limits assumed).
T7 construct: also called hFcgRIa; hFcgRI
T7 sequence (P12314 16-292 limits assumed): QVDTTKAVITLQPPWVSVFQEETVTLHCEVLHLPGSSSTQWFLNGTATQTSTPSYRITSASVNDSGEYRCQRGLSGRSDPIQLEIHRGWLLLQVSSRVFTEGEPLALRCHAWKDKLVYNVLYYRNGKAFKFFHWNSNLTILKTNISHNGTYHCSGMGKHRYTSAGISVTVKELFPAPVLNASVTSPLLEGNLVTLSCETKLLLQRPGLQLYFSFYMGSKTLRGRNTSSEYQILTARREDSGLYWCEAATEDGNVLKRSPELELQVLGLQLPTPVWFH
Described as above.

Experiment [8] addresses T8, human FcγRIIIa(V) (human, UniProt P08637 17-208, limits assumed).
T8 construct: also called hFcgRIIIa(V); allotype V158
The description is as above.

Experiment [9] deals with T9, human FcγRIIb (human, UniProt P31994 43-217, limits assumed).
T9 construct: also called hFcgRIIb; FcγIIB
T9 sequence: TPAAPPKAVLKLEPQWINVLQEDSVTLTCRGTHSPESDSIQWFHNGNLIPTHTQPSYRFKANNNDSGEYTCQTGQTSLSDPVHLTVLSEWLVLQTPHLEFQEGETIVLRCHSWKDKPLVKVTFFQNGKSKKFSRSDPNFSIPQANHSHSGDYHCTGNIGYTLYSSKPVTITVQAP
The experiment is described as above.

Experiment [10] concerns the target T10, human FcRn (soluble human FcRn complexed with β2-microglobulin) (human, UniProt P61769 21-119, limits assumed).
T10 construct: also called hFcRn
Put plainly: SPR, antibody captured by Protein L, human FcRn as analyte, pH 7.0, 25 C.

In experiment [11] the target is T1, mouse FcγRIIb. Put plainly: SPR, antibody captured by Protein L, mouse FcγR as analyte, pH 7.4, 25 C. On the set-up: unit not given here.
Experiment [12] deals with T2, mouse FcγRIII. The description is as above. Also noted: unit not given here.
In experiment [13] the target is T3, mouse FcγRIV. The experiment is described as above. On the set-up: unit not given here.
In experiment [14] the target is T4, mouse FcγRI. The description is as above. On the set-up: unit not given here.
Experiment [15] has as its target T10, human FcRn (soluble human FcRn …). Put plainly: SPR, antibody captured by Protein L, human FcRn as analyte, pH 7.0, 25 C. This is another data set of the same source.
Experiment [16] shares this target. The description is as above. The source holds these as a separate data set.

Positions count from the first letter of the chain named. Numbers in names are those of the source. Read-outs that look alike come from different tables or passages of the source.

T10 sequence (chain, as listed by the source limits assumed, chain 1 of 2): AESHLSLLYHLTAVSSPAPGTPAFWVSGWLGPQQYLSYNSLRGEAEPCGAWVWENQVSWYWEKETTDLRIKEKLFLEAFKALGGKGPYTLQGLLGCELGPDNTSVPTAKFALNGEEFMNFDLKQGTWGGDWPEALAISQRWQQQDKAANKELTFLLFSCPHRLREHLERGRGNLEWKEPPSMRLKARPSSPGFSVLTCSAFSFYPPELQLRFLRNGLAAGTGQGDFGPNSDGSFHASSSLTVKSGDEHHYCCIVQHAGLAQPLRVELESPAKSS
T10 sequence (P61769 21-119 limits assumed, chain 2 of 2): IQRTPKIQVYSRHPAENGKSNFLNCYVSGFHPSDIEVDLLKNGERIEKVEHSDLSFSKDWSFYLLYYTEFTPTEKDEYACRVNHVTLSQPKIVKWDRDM
T8 sequence (P08637 other isoform, or with tags, fused parts or gaps limits assumed): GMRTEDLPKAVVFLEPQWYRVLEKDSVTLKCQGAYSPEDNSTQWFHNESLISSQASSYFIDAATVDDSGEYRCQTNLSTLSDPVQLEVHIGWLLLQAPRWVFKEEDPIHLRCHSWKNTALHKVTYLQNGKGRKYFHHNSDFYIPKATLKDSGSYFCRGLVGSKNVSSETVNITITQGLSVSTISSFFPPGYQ

B1: antibody with VH3-IgG1-F947 heavy chain and L(WT)-CK light chain (antibody)
heavy: QVQLQESGPGLVKPSETLSLTCAVSGHSISHDHAWSWVRQPPGEGLEWIGFISYSGITNYNPSLQGRVTISRDNSKNTLYLQMNSLRAEDTAVYYCARSLARTTAMDYWGEGTLVTVSSASTKGPSVFPLAPSSKSTSGGTAALGCLVKDYFPEPVTVSWNSGALTSGVHTFPAVLQSSGLYSLSSVVTVPSSSLGTQTYICNVNHKPSNTKVDKKVEPKSCDKTHTCPPCPAPELLGGPSVFLFPPKPKDVLYISRTPEVTCVVVDVSHEDPEVKFNWYVDGVEVHNAKTKPREEQYNSTYRVVSVLQPLHADWLNGKEYKCKVSNKALPAPIEKTISKAKGQPREPQVYTLPPSRDELTKNQVSLTCLVKGFYPSDIAVEWESNGQPENNYKTTPPVLDSDGSFFLYSKLTVDKSRWQQGNVFSCSVMHEALHYHVTQKSLSLSP
light: not shown
notes: T250V/M252Y/T307Q/V308P/Q311A/N434Y/Y436V; copies: 2 + 2
As for B1, the “BINDING AMOUNT (RU)” value in experiment [1] was 117 RU; in experiment [2] it was 382 RU; in experiment [3] it was 242 RU; in [4], 299 RU; in experiment [5], 154 RU; in experiment [6], 148 RU. The entries for the “BINDING AMOUNT (RU)” value in experiment [7], in experiment [8] and in experiment [9] were 368 RU, 221 RU and 70.6 RU, respectively. Also, the Kd in experiment [10], in experiment [15] and in experiment [16] was 11 nM in each case. Also, the “binding amount” value in experiment [11] came out at 129; in experiment [12], 664; in experiment [13], 279; in experiment [14], 329.
